Reference: US7809428B2, “Devices for detection and therapy of atheromatous plaque” (The General Hospital Corporation, priority 2001, dated 2010)

How the values were obtained:
[1] = test system: aortic and iliac plaque of atherosclerotic rabbits; assay: Intimal surface fluorescence by OMA-LIF system; assay type: in vivo, rabbit
From the text: The second measurement of intimal surface fluorescence was made by the OMA-LIF system described above. At least 15 separate fluorescence measurements were taken from each artery segment. In addition, the iliac artery through which the balloon was passed also sustained an injury due to its relatively small diameter compared to aortic section 5 and, therefore, developed atherosclerosis compared to the uninjured iliac artery. […] Sections 3, 4 and injured iliac of atherosclerotic compared to normal control had p values<0.0001, while section 5 and uninjured iliacs had p values<0.0005. Accordingly, the less severe plaques of section 5 are distinguishable from the macrophage-rich plaques of sections 3 and 4.
In FIG. 14a, a marked contrast was seen between a large aortic plaque and an area of the abdominal aorta 5 mm beneath the plaque. In FIG. 14b, another marked contrast was seen between the balloon injured iliac artery and the contralateral normal artery in the same rabbit. […] These spectra were obtained in a rabbit that had received an overdose of anesthesia. […] By palpation of the outside of the artery, the position of the catheter in relation to plaques was determined Thus, a novel method has been developed for targeting a photosensitizer composition to the activated macrophages of a vulnerable plaque with high specificity.

[2] = test system: aortic plaque of atherosclerotic rabbits; details: rabbit, in vivo
Protocol: For confocal fluorescence microscopy, selected parts of the aortas were snap frozen in liquid nitrogen and approximately 10-20 μm frozen sections were prepared. These sections underwent laser scanning confocal fluorescence microscopy to detect the tissue distribution of the ce6. The red intracellular fluorescence from ce6 together with green tissue auto-fluorescence was imaged in the cells in 10 μm frozen sections. Sections were examined with a laser scanning confocal fluorescence microscope. A Leica DMR confocal laser fluorescence microscope (Leica Mikroskopie und Systeme GmbH, Wetzler, Germany)(excitation 488 nm argon laser) and 4×−40× air immersion lens or a 100× oil immersion objective was used to image at a resolution of 1024×1024 pixels. […] These channels were overlaid using TCS NT software (Version 1.6.551, Leica Lasertechnik, Heidelberg, Germany) to allow visualization of overlap of red and green fluorescence. These sections were also stained by immunohistochemistry using macrophage specific monoclonal antibodies and conventional H&E staining. Other parts of normal and atherosclerotic aorta were cut into small pieces, weighed and dissolved in sodium hydroxide/SDS and the tissue content of ce6 was determined by spectrofluorimetry as previously described (Hamblin et al (2000) Br. J. Cancer 83:1544). […]

[3] = test system: balloon-injured abdominal aorta plaque; assay: In vivo photodynamic therapy of rabbit aorta through flowing blood
Protocol: Animals (one atherosclerotic and one normal rabbit, each injected with Mal-BSA-ce6 24 hours previously; and one atherosclerotic rabbit that received no injection) were anesthetized as before and a cylindrical diffusing tipped fiber optic (length of tip=2 cm, diameter=1 mm) was advanced to a position midway along the balloon-injured abdominal aorta. […] Light was delivered at a fluence rate of approximately 100 mW/cm of diffusing tip and a total fluence of approximately 100 J/cm was delivered. At the conclusion of the illumination, the fiber was withdrawn and the arteriotomy and overlying wound were closed. Animals were sacrificed 48 hours later. […] Complete aortas and iliac arteries were removed from the PDT treated normal and atherosclerotic rabbits and control (no Mal-BSA-ce6 injection) atherosclerotic rabbit and were examined by histology using H&E, Masson Trichrome and Verhoeffs stain.

[4] = test system: experimental atherosclerotic lesions of the aorta; assay type: in vivo, rabbit
Protocol: Male New Zealand White rabbits weighing 2.5-3.0 kg (Charles River Breeding Laboratories) were maintained on a 2% cholesterol-6% peanut oil diet (ICN) for 3 months. […] The femoral artery was then ligated, and the wound closed. The animals were allowed to recover from anesthesia and then returned to their cages.
Two to four millicuries of the ^99mTc-Ap4A-glucoheptonate, ^99mTc-AppCHClppA-glucoheptonate, or ^99mTc-glucoheptonate (control) was injected into marginal ear veins of groups of three rabbits with experimental atherosclerotic lesions. As a control, three unlesioned animals were injected with 2-4 mCi of ^99mTc-Ap4A-glucoheptonate. After radiopharmaceutical administration, serial gamma images were collected every minute for the first 5 minutes, every 2 minutes for the next 25 minutes, and every 5 minutes for the next 2.5 hours. In all of the rabbits, images were acquired in the anterior and lateral decubitus projections, including the heart and aorta, by using a standard field-of-view gamma camera (Series 100, Ohio Nuclear, Solon, Ohio) equipped with a high-resolution parallel-hole collimator and interfaced with a dedicated computer system (Technicare 560, Solon, Ohio). The pulse height analyzer was adjusted to record the 140 KeV photopeak of ^99mTc, and all images were recorded in a 256×256 matrix.
After acquiring the final images, the animals were sacrificed with an overdose of sodium pentobarbital. The aortas were removed, opened along the ventral surface, and mounted on styrofoam blocks. The aortas then were placed on the face of the gamma camera and ex vivo images were recorded for 10 minutes.

[5] = test system: J774 or RAW264.7 mouse macrophage-like cells versus non-target EMT-6 cells; assay: Cellular uptake of conjugates and free ce6; assay type: cell-based; details: J774 and EMT-6 cells
Protocol: J774.A1 (J774) and RAW 264.7 mouse macrophage-like cell lines, together with EMT-6 mouse mammary […] cells, were obtained from ATCC (Rockville, Md.). Cells were grown in RPMI 1640 media containing HEPES, glutamine, 10% fetal calf serum (FCS), 100 U/ml penicillin and 100 μg/ml streptomycin. They were passaged by washing with phosphate buffered saline (PBS) without Ca^2+ and Mg^2+ and by adding trypsin-EDTA to the plate for 10 minutes at 37° C.
For cellular uptake studies, cells were grown to approximately 90% confluency in twenty-four well plates and the conjugate or photosensitizer was added in about 1 ml medium containing approximately 10% serum to each well. […] The trypsin supernatant was checked for the presence of fluorescence to quantify any surface binding which might easily be removed by trypsin. The fluorescence was measured using an excitation wavelength of 400 nm and the emission scanned from 580 to 700 nm in order to calculate the peak area (λmax=664 nm). A series of dilutions in approximately 1.5 ml 0.1M NaOH/1% SDS of known concentrations of each separate conjugate and photosensitizer was scanned for fluorescence as above in order to prepare calibration curves to allow for quantitation of the ce6 by conversion of the measured peak areas into mol ce6 equivalent. […] Results were expressed as mol of ce6 per mg cell protein. […]

[6] = atherosclerotic rabbit, conjugate and light

Mal-BSA-ce6
intimal surface fluorescence, atherosclerotic versus normal rabbit ([1]; arteries with inflamed plaque (sections 3, 4 and injured iliac, p<0.0001)): highly significant increases in fluorescence | intimal surface fluorescence, atherosclerotic versus normal rabbit ([1]; sections 1 and 2): not significantly different | extracted ce6 fluorescence per gram tissue, difference atherosclerotic versus normal rabbits [2]: significant | gross damage at necropsy in illuminated aortic section or surrounding tissue ([3]; atherosclerotic rabbit, 48 hours after PDT): no gross damage visible | histological changes in the illuminated section [3, 6]: evidence of apoptosis (pyknotic nuclei) and an inflammatory infiltrate in the plaque | necrosis in the illuminated section (histology) [3, 6]: some coagulative necrosis | overall effect of treatment on plaque histology [3, 6]: favorable modifications of plaque histology and reduced vulnerability | gross damage at necropsy in surrounding tissue ([3]; normal rabbit, 48 hours after PDT): some minor damage visible in the paraaortic muscle | histological changes ([3]; normal rabbit, photosensitizer composition and light): Histological changes were not observed | ill effects of treatment before sacrifice ([3]; two rabbits that received composition and light, two days): no ill effects

^99mTc-glucoheptonate
clearance of radioactivity from all organs, t1/2s ([4]; rabbit, in vivo): 5 to 10 min | organs in which radioactivity accumulated ([4]; rabbit, in vivo): accumulated in the kidneys and bladder | accumulation of radioactivity in the aortic lesions ([4]; rabbits with experimental atherosclerosis): no evidence of specific accumulation in the aortic lesions

chlorin e6 [ce6]
uptake of unbound ce6 by receptor-positive and receptor-negative cells [5]: indiscriminate uptake
